In the supplement of paper PMC7125110:
± gives the standard error. For some of these results: Fewer inactive variants are shown than the library holds.

B1: glmS ribozyme (parent)
chain: AUAAAAGCGCCAGAACUACAGAAAUGUAGUUGACGAGGAGGAGGUUUAUCGAAUUUUCGGCGGAUGCCUCCAAA

Tests used:
Conditions in all cases: with glucosamine-6-phosphate
glucosamine-6-phosphate [1] = variants of: B1; test: kcat; higher = faster cleavage; RNA array
How it was run: (§1)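 Sequenced MiSeq chips were the platform: E. coli RNA polymerase transcribed barcoded ribozyme variants on them in situ, and a hybridised Cy3 probe tracked these at 37 °C. After glucosamine-6-phosphate (40 μM to 10 mM) in HEPES/KCl/Mg(OAc)2 buffer was flowed in, tiles were imaged over ~14 h. Signals normalised to baseline and to non-cleaving reference variants were reduced to per-tile medians and fit to one- or two-exponential decays to obtain kobs. kcat and KM were derived through weighted Michaelis–Menten fits across concentrations.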

glucosamine-6-phosphate [2] = variants of: B1; test: KM; higher = weaker cofactor use; RNA array
How it was run: as §1

glucosamine-6-phosphate [3] = variants of: B1; test: self-cleavage kobs at 160 uM GlcN6P; higher = faster cleavage; RNA array
How it was run: as §1

glucosamine-6-phosphate [4] = variants of: B1; test: self-cleavage kobs at 640 uM GlcN6P; higher = faster cleavage; RNA array
How it was run: as §1

glucosamine-6-phosphate [5] = variants of: B1; test: self-cleavage kobs at 2500 uM GlcN6P; higher = faster cleavage; RNA array
How it was run: as §1

glucosamine-6-phosphate [6] = variants of: B1; test: self-cleavage kobs at 10000 uM GlcN6P; higher = faster cleavage; RNA array
How it was run: as §1

glucosamine-6-phosphate [7] = variants of: B1; test: self-cleavage kobs at 40 uM GlcN6P; higher = faster cleavage; RNA array
How it was run: as §1

Variant	kcat (glucosamine-6-phosphate [1]) [s⁻¹]	KM (glucosamine-6-phosphate [2]) [µM]	self-cleavage kobs at 160 uM GlcN6P (glucosamine-6-phosphate [3]) [s⁻¹]	self-cleavage kobs at 640 uM GlcN6P (glucosamine-6-phosphate [4]) [s⁻¹]	self-cleavage kobs at 2500 uM GlcN6P (glucosamine-6-phosphate [5]) [s⁻¹]	self-cleavage kobs at 10000 uM GlcN6P (glucosamine-6-phosphate [6]) [s⁻¹]	self-cleavage kobs at 40 uM GlcN6P (glucosamine-6-phosphate [7]) [s⁻¹]
A6U A12U	0.000909 ± 9.6e-05	2840 ± 510	6.32e-05 ± 1.6e-05	0.000158 ± 2.3e-05	0.000426 ± 4.8e-05	0.000715 ± 9.1e-05	–
C50G A64U	5.29e-05 ± 1.7e-05	–	6.24e-05 ± 1.5e-05	9.1e-05 ± 2.3e-05	5.11e-05 ± 1.7e-05	–	–
G40A A42C	2.78e-05 ± 3.3e-06	1680 ± 670	< 1e-05	–	–	–	–
G59A C70A	1.52e-05 ± 3.7e-06	–	–	–	–	–	–
A14G C16A	0.00509 ± 0.0016	847 ± 380	0.000745 ± 0.00023	0.0021 ± 0.00042	0.00276 ± 0.00082	0.00789 ± 0.0017	0.000249 ± 4.2e-05
G13U A14G	0.00536 ± 0.0022	–	0.00019 ± 7.3e-05	0.00104 ± 0.00019	0.00171 ± 0.00049	0.00495 ± 0.00073	0.000124 ± 2e-05
C16U C50G A53U U55A	3.66e-05 ± 1e-05	–	–	4.65e-05 ± 2.2e-05	–	–	–
A12G U31G	0.000573 ± 0.00012	4660 ± 1500	–	6.61e-05 ± 8.2e-06	0.000254 ± 3.4e-05	0.000374 ± 3.9e-05	–
A12U G59U	1.03e-05 ± 1e-06	–	–	–	–	–	–
A48U C58G	1.01e-05 ± 4e-06	–	–	–	–	–	–
G43U G66A	2.89e-05 ± 1.6e-06	431 ± 170	–	–	–	–	–
U56G C68U	0.00243 ± 0.00033	1660 ± 380	0.000217 ± 4.7e-05	0.000551 ± 9.7e-05	0.00206 ± 0.00046	0.00208 ± 0.00021	6.61e-05 ± 1.1e-05
A33C G59U	< 1e-05	–	< 1e-05	–	–	< 1e-05	–
A42U U54C	0.00019 ± 4.1e-05	–	–	6.5e-05 ± 1.1e-05	0.00024 ± 3.8e-05	0.000159 ± 1.7e-05	–
A42U U54A	0.000282 ± 2.2e-05	1890 ± 340	–	6.94e-05 ± 9.8e-06	0.000177 ± 2e-05	0.000231 ± 2e-05	–
A53U U55G A64C	9.81e-05 ± 5.1e-06	3420 ± 520	–	–	4.12e-05 ± 1.6e-05	7.31e-05 ± 1.4e-05	–
A12U C67G	0.00362 ± 0.00062	791 ± 210	0.000542 ± 0.00011	0.0015 ± 0.00029	0.00226 ± 0.00035	0.00426 ± 0.00054	0.00019 ± 2.1e-05
G13C U31G	0.000196 ± 4.5e-06	1560 ± 90	–	5.79e-05 ± 1.2e-05	0.000119 ± 1.8e-05	0.00017 ± 2.2e-05	–
